The results in this text go back to the Immune Epitope Database (IEDB).

Common to all, as to assay: IEDB peptide-MHC binding, purified MHC/competitive/radioactivity; ≥ and ≤ were set here for values at or beyond the usual limits of such assays
Assay [1] has as its target HLA-A*02:01.
In assay [2] the target is HLA-A*02:02.
In assay [3] the target is HLA-A*02:03.
Assay [4] has as its target HLA-A*02:06.
In assay [5] the target is HLA-A*68:02.
Setting [6] is: source organism: Hepacivirus hominis.
Setting [7] is: source organism: Vaccinia virus WR.
Setting [8] is: source organism: Influenza A virus.

Turning to SMGNTLTCYV, the concentration for half-maximal inhibition (IC50) was determined as 100 nM in assay [1] (setting [6]); 44 nM in assay [2] (setting [6]); 39 nM in assay [3] (setting [6]); 205 nM in assay [4] (setting [6]); 2430 nM in assay [5] (setting [6]).

As to SMMSFSAAL, the IC50 in assay [1] (setting [6]) is 13 nM; in assay [2] (setting [6]) it was 5.1 nM; in assay [3] (setting [6]), 15 nM; in assay [4] (setting [6]) it was 106 nM; in assay [5] (setting [6]), 493 nM.

In the case of SMSQELAELL, the concentration for half-maximal inhibition (IC50) was 32 nM in assay [1] (setting [7]); 6.2 nM in assay [2] (setting [7]); 55 nM in assay [3] (setting [7]); 474 nM in assay [4] (setting [7]); 1300 nM in assay [5] (setting [7]).

Consider SMYGKAFNHA, for which the 50% inhibitory concentration (IC50) in assay [1] (setting [7]) is 9.7 nM; in assay [2] (setting [7]), 6.6 nM; in assay [3] (setting [7]) it was 0.93 nM; in assay [4] (setting [7]), 4 nM; in assay [5] (setting [7]) it was 163 nM.

In the case of SMYVIPDELI, the concentration for half-maximal inhibition (IC50) turned out to be 380 nM in assay [1] (setting [7]); 31 nM in assay [2] (setting [7]); 114 nM in assay [3] (setting [7]); 492 nM in assay [4] (setting [7]); 1740 nM in assay [5] (setting [7]).

Take SQFSYKELYV: the IC50 is 121 nM in assay [1] (setting [7]); 14 nM in assay [2] (setting [7]); 27 nM in assay [3] (setting [7]); 71 nM in assay [4] (setting [7]); 634 nM in assay [5] (setting [7]).

Consider SSLENFRAYV, for which the IC50 in assay [1] (setting [8]) is 172 nM; in assay [2] (setting [8]), 204 nM; in assay [3] (setting [8]), 1140 nM; in assay [4] (setting [8]), 44 nM; in assay [5] (setting [8]), 24 nM.

As for STDQDTMLFA, the concentration for half-maximal inhibition (IC50) in assay [1] (setting [7]) worked out at 3520 nM; in assay [2] (setting [7]), 646 nM; in assay [3] (setting [7]), 4700 nM; in assay [4] (setting [7]), 2020 nM; in assay [5] (setting [7]), 1550 nM.

On to STISWMMKL, for which the IC50 in assay [1] (setting [7]) is 55 nM; in assay [2] (setting [7]) it was 92 nM; in assay [3] (setting [7]), 23 nM; in assay [4] (setting [7]) it was 12 nM; in assay [5] (setting [7]), 0.23 nM.

Take STSPTRTWKV: the half-inhibitory concentration (IC50) amounted to 741 nM in assay [1] (setting [7]); 397 nM in assay [2] (setting [7]); 717 nM in assay [3] (setting [7]); 504 nM in assay [4] (setting [7]); 131 nM in assay [5] (setting [7]).

Regarding STTENAAYQV, the IC50 in assay [1] (setting [7]) was 1180 nM; in assay [2] (setting [7]), 928 nM; in assay [3] (setting [7]) it was 4700 nM; in assay [4] (setting [7]), 101 nM; in assay [5] (setting [7]), 15 nM.

For STYPGNTFV, the 50% inhibitory concentration (IC50) worked out at 64 nM in assay [1] (setting [7]); 11 nM in assay [2] (setting [7]); 0.19 nM in assay [3] (setting [7]); 0.46 nM in assay [4] (setting [7]); 0.24 nM in assay [5] (setting [7]).

On to SVDVDIYDAV, for which the IC50 was found to be 153 nM in assay [1] (setting [7]); 0.43 nM in assay [2] (setting [7]); 9.2 nM in assay [3] (setting [7]); 3.3 nM in assay [4] (setting [7]); 0.25 nM in assay [5] (setting [7]).

Consider SVIFYFISI, for which the IC50 in assay [1] (setting [7]) came out at 79 nM; in assay [2] (setting [7]), 155 nM; in assay [3] (setting [7]) it was 75 nM; in assay [4] (setting [7]), 0.17 nM; in assay [5] (setting [7]) it was 1.7 nM.

Regarding SVKNLILNFL, the IC50 in assay [1] (setting [7]) came to 2210 nM; in assay [2] (setting [7]), 1040 nM; in assay [3] (setting [7]), 163 nM; in assay [4] (setting [7]), 551 nM; in assay [5] (setting [7]), 130 nM.

As to SVMNFIPII, the half-maximal inhibitory concentration (IC50) in assay [1] (setting [7]) is 1.7 nM; in assay [2] (setting [7]), 13 nM; in assay [3] (setting [7]), 6.3 nM; in assay [4] (setting [7]) it was 2.8 nM; in assay [5] (setting [7]), 58 nM.

As for TAYIGTSNWT, the IC50 in assay [1] (setting [7]) turned out to be 4150 nM; in assay [2] (setting [7]) it was 1760 nM; in assay [3] (setting [7]), 1050 nM; in assay [4] (setting [7]), 220 nM; in assay [5] (setting [7]), 555 nM.

TIAGGVCYYL: the half-maximal inhibitory concentration (IC50) in assay [1] (setting [7]) was determined as 0.24 nM; in assay [2] (setting [7]), 0.036 nM; in assay [3] (setting [7]), 34 nM; in assay [4] (setting [7]), 4 nM; in assay [5] (setting [7]), 0.13 nM.

Turning to TIAHINTLI, the IC50 in assay [1] (setting [7]) stood at 255 nM; in assay [2] (setting [7]), 21 nM; in assay [3] (setting [7]), 20 nM; in assay [4] (setting [7]) it was 571 nM; in assay [5] (setting [7]), 129 nM.

As to TIAVSVYGA, the half-maximal inhibitory concentration (IC50) in assay [1] (setting [7]) was 104 nM; in assay [2] (setting [7]), 25 nM; in assay [3] (setting [7]) it was 9.9 nM; in assay [4] (setting [7]), 99 nM; in assay [5] (setting [7]), 32 nM.

As to TICLKNEGV, the IC50 in assay [1] (setting [7]) stood at 547 nM; in assay [2] (setting [7]) it was 494 nM; in assay [3] (setting [7]) it was 120 nM; in assay [4] (setting [7]), 311 nM; in assay [5] (setting [7]) it was 5.8 nM.

Turning to TIDAINKCV, the IC50 in assay [1] (setting [7]) came to 783 nM; in assay [2] (setting [7]), 90 nM; in assay [3] (setting [7]), 634 nM; in assay [4] (setting [7]) it was 406 nM; in assay [5] (setting [7]), 222 nM.

Regarding TIDKSSPLYI, the half-inhibitory concentration (IC50) was found to be 1900 nM in assay [1] (setting [7]); 387 nM in assay [2] (setting [7]); 12 nM in assay [3] (setting [7]); 1820 nM in assay [4] (setting [7]); 1550 nM in assay [5] (setting [7]).

For TIDNIVTSL, the IC50 in assay [1] (setting [7]) was determined as 2670 nM; in assay [2] (setting [7]), 178 nM; in assay [3] (setting [7]), 1040 nM; in assay [4] (setting [7]), 2730 nM; in assay [5] (setting [7]), 1860 nM.

In the case of TIFDIVSKCI, the 50% inhibitory concentration (IC50) in assay [1] (setting [7]) is 596 nM; in assay [2] (setting [7]), 198 nM; in assay [3] (setting [7]), 94 nM; in assay [4] (setting [7]), 701 nM; in assay [5] (setting [7]), 109 nM.

TIGTIAGGV: the 50% inhibitory concentration (IC50) came to 772 nM in assay [1] (setting [7]); 298 nM in assay [2] (setting [7]); 17 nM in assay [3] (setting [7]); 1140 nM in assay [4] (setting [7]); 70 nM in assay [5] (setting [7]).

For TIKESLLKET, the 50% inhibitory concentration (IC50) was 85 nM in assay [1] (setting [7]); 1580 nM in assay [2] (setting [7]); 149 nM in assay [3] (setting [7]); 87 nM in assay [4] (setting [7]); 296 nM in assay [5] (setting [7]).

Turning to TILATLNTLI, the half-maximal inhibitory concentration (IC50) in assay [1] (setting [7]) is 184 nM; in assay [2] (setting [7]) it was 40 nM; in assay [3] (setting [7]) it was 30 nM; in assay [4] (setting [7]), 335 nM; in assay [5] (setting [7]), 1470 nM.

Turning to TILDDNLYKV, the IC50 in assay [1] (setting [7]) is 239 nM; in assay [2] (setting [7]) it was 1080 nM; in assay [3] (setting [7]) it was 1630 nM; in assay [4] (setting [7]) it was 49 nM; in assay [5] (setting [7]), 1420 nM.

Turning to TINVNSLAL, the half-maximal inhibitory concentration (IC50) in assay [1] (setting [7]) came to 1530 nM; in assay [2] (setting [7]), 1980 nM; in assay [3] (setting [7]) it was 1540 nM; in assay [4] (setting [7]) it was 2180 nM; in assay [5] (setting [7]) it was 1530 nM.

Turning to TISGNIYSA, the half-inhibitory concentration (IC50) in assay [1] (setting [7]) is 207 nM; in assay [2] (setting [7]) it was 85 nM; in assay [3] (setting [7]), 19 nM; in assay [4] (setting [7]), 179 nM; in assay [5] (setting [7]) it was 11 nM.

Consider TISGNIYSAL, for which the IC50 in assay [1] (setting [7]) came out at 1110 nM; in assay [2] (setting [7]) it was 9.3 nM; in assay [3] (setting [7]), 89 nM; in assay [4] (setting [7]) it was 2670 nM; in assay [5] (setting [7]), 19 nM.

As to TLDAANHSI, the IC50 in assay [1] (source organism: SARS-CoV1) is 9.6 nM; in assay [2] (source organism: SARS-CoV1) it was 92 nM; in assay [3] (source organism: SARS-CoV1), 283 nM; in assay [4] (source organism: SARS-CoV1), 29 nM; in assay [5] (source organism: SARS-CoV1) it was 1020 nM.

TLGVYDYLV: the IC50 in assay [1] (source organism: SARS-CoV1) was 2.7 nM; in assay [2] (source organism: SARS-CoV1), 0.25 nM; in assay [3] (source organism: SARS-CoV1) it was 936 nM; in assay [4] (source organism: SARS-CoV1), 75 nM; in assay [5] (source organism: SARS-CoV1), 157 nM.

For the sequence TLIDFYLCFL, the concentration for half-maximal inhibition (IC50) in assay [1] (source organism: SARS-CoV1) was determined as 2.2 nM; in assay [2] (source organism: SARS-CoV1) it was 0.041 nM; in assay [3] (source organism: SARS-CoV1) it was 3.6 nM; in assay [4] (source organism: SARS-CoV1), 3 nM; in assay [5] (source organism: SARS-CoV1), 151 nM.

For the sequence TLIQYRQQL, the IC50 in assay [1] (setting [7]) came to 134 nM; in assay [2] (setting [7]), 128 nM; in assay [3] (setting [7]) it was 410 nM; in assay [4] (setting [7]) it was 1880 nM; in assay [5] (setting [7]) it was 725 nM.

The IC50 is the midpoint of a concentration-inhibition curve.
